Data from patent publication US20200199213A1 (Eli Lilly, published 2020).

T1: mouse ANGPTL3/8 complex (mouse, UniProt Q9R182 17-455; Q8R1L8 16-198, limits assumed)
T1 sequence (looked up) 1: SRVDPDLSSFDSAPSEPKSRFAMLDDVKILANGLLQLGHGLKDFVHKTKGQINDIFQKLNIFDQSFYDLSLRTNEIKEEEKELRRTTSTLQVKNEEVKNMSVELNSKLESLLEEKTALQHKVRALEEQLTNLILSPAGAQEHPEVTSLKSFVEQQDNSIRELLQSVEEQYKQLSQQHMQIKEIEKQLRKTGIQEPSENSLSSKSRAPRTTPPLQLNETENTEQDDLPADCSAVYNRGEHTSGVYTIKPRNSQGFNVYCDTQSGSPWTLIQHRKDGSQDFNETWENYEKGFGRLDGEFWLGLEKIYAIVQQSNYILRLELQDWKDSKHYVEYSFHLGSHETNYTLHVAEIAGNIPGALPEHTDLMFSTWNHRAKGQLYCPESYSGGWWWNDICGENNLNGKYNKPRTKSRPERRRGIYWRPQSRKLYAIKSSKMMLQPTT
T1 sequence (looked up) 2: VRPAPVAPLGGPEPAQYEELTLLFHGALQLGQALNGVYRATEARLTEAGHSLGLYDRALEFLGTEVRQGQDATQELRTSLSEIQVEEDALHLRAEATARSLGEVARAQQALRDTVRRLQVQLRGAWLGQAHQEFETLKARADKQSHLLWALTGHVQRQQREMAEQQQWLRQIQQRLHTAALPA

T2: human ANGPTL8 (human, UniProt Q6UXH0 22-198)
T2 construct: Biotinylated in the ELISA assays; also called hANGPTL8; free ANGPTL8
T2 sequence: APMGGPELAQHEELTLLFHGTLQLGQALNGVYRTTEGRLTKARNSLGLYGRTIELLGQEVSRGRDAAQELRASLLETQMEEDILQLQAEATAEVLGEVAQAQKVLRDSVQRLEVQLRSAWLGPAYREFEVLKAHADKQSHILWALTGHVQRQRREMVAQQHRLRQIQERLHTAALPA

T3: human LPL (human, UniProt P06858 28-475)
T3 sequence (looked up): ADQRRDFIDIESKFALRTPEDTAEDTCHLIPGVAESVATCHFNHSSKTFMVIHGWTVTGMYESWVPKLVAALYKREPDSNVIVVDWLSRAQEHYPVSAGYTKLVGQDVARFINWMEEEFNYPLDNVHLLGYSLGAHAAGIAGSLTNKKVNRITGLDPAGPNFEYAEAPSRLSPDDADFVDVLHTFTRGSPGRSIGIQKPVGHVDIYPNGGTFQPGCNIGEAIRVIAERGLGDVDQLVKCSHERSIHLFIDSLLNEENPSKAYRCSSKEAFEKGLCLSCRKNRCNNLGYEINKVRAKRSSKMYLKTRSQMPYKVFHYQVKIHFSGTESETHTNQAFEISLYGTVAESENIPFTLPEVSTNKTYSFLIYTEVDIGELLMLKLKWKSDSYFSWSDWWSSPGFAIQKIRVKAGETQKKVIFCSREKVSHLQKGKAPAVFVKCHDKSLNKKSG

T4: LPL (lipoprotein lipase) on LPL-expressing cells of Example 1
T4 sequence (P06858 28-475, species assumed, looked up): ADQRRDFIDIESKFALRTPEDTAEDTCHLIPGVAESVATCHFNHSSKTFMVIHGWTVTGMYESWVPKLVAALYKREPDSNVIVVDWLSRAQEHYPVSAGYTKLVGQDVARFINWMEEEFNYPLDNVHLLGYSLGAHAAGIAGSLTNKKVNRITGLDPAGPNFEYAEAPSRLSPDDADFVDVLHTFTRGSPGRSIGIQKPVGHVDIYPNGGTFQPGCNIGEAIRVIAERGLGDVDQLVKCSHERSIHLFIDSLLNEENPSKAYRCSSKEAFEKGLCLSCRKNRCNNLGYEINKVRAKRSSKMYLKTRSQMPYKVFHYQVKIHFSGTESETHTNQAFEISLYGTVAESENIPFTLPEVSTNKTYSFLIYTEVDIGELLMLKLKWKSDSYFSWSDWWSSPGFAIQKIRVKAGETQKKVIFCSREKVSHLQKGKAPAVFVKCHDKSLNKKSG

T5: cynomolgus LPL (cynomolgus, UniProt A0A7N9D851 28-475)
T5 sequence: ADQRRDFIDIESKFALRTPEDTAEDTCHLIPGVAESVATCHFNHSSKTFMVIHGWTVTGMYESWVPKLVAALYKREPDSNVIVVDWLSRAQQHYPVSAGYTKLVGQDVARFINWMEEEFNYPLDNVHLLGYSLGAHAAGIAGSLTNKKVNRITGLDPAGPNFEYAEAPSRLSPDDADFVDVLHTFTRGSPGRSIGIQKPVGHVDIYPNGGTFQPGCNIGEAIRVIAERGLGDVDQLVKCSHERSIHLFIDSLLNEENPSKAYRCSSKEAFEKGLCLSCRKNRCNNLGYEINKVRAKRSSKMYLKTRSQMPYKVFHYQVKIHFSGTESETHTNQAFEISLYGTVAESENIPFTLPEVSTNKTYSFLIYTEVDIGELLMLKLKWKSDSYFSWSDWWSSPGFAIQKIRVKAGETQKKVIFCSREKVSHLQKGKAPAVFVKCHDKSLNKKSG

B1: human ANGPTL3/8 complex (other)
chain 1: SRIDQDNSSFDSLSPEPKSRFAMLDDVKILANGLLQLGHGLKDFVHKTKGQINDIFQKLNIFDQSFYDLSLQTSEIKEEEKELRRTTYKLQVKNEEVKNMSLELNSKLESLLEEKILLQQKVKYLEEQLTNLIQNQPETPEHPEVTSLKTFVEKQDNSIKDLLQTVEDQYKQLNQQHSQIKEIENQLRRTSIQEPTEISLSSKPRAPRTTPFLQLNEIRNVKHDGIPAECTTIYNRGEHTSGMYAIRPSNSQVFHVYCDVISGSPWTLIQHRIDGSQNFNETWENYKYGFGRLDGEFWLGLEKIYSIVKQSNYVLRIELEDWKDNKHYIEYSFYLGNHETNYTLHLVAITGNVPNAIPENKDLVFSTWDHKAKGHFNCPEGYSGGWWWHDECGENNLNGKYNKPRAKSKPERRRGLSWKSQNGRLYSIKSTKMLIHPTDSESFEAAADYKDDDDK
chain 2: APMGGPELAQHEELTLLFHGTLQLGQALNGVYRTTEGRLTKARNSLGLYGRTIELLGQEVSRGRDAAQELRASLLETQMEEDILQLQAEATAEVLGEVAQAQKVLRDSVQRLEVQLRSAWLGPAYREFEVLKAHADKQSHILWALTGHVQRQRREMVAQQHRLRQIQERLHTAALPA
B2: human ANGPTL3 (other)
chain: SRIDQDNSSFDSLSPEPKSRFAMLDDVKILANGLLQLGHGLKDFVHKTKGQINDIFQKLNIFDQSFYDLSLQTSEIKEEEKELRRTTYKLQVKNEEVKNMSLELNSKLESLLEEKILLQQKVKYLEEQLTNLIQNQPETPEHPEVTSLKTFVEKQDNSIKDLLQTVEDQYKQLNQQHSQIKEIENQLRRTSIQEPTEISLSSKPRAPRTTPFLQLNEIRNVKHDGIPAECTTIYNRGEHTSGMYAIRPSNSQVFHVYCDVISGSPWTLIQHRIDGSQNFNETWENYKYGFGRLDGEFWLGLEKIYSIVKQSNYVLRIELEDWKDNKHYIEYSFYLGNHETNYTLHLVAITGNVPNAIPENKDLVFSTWDHKAKGHFNCPEGYSGGWWWHDECGENNLNGKYNKPRAKSKPERRRGLSWKSQNGRLYSIKSTKMLIHPTDSESFE

What was measured:
[1] = target: T1, mouse ANGPTL3/8 complex; experiment: cell-based or functional assay
[2] = target: B1; experiment: cell-based or functional assay
[3] = target: T2, human ANGPTL8; experiment: single point ELISA
Description: (§1) Single Point ELISA (SPE) Assay: Ab binding selectivity to either the ANGPTL3/8 complex, free ANGPTL3 or free ANGPTL8 is initially verified using standard ELISA assays in a single point format. […] IgG secreted into supernatants after expression in CHO cells are then captured to the assay plate. Biotinylated antigen is added at a concentration of 25 nM to allow for Ab/antigen binding. Ab/antigen complexes are detected after adding alkaline phosphatase-conjugated neutravidin and alkaline phosphatase substrate, and subsequent measurement of the optical density at 560 nm. Positive binding is determined by a signal greater than 3 fold over the non-binding background signal.

[4] = target: B2; experiment: single point ELISA
Description: as §1

[5] = target: T2, human ANGPTL8; experiment: single point ELISA; IgG captured by anti-human Fc; biotinylated antigen at 25 nM
Description: as §1

[6] = target: B1; experiment: as above
Description: as §1

[7] = target: B2; experiment: as above
Description: as §1

[8] = target: T3, human LPL; experiment: cell-based or functional assay
[9] = target: T4, LPL (lipoprotein lipase) on …; experiment: cell-based or functional assay
[10] = target: T5, cynomolgus LPL; experiment: cell-based or functional assay

binding result [3]	binding result [4]	OD at 560 nm [5]	OD at 560 nm [6]	OD at 560 nm [7]	EC50 in the LPL assay (inhibition of LPL) [9]	Binder	other results
no binding	no binding	0.07 OD 560 nm	0.661 OD 560 nm	0.06 OD 560 nm		Ab with LC variant having a D33T mutation (SEQ ID NO:23) and a HC of SEQ ID NO:6 (antibody, human IgG4 S228P, kappa, F234A L235A, V domains shown, also called D33T Ab) VH: QVTLKESGPTLVKPTQTLTLTCTFSGFSLSISGVGVGWIRQPPGKALEWLALIYRNDDKRYSPSLKSRLTITKDTSKNQVVLTLTNMDPVDTATYYCARTYSSGWYGNWFDPWGQGTLVTVSS VL: DIVMTQTPLSLPVTPGEPASISCRSSQSLLDSTDGNTYLDWYLQKPGQSPQLLIYMLSYRASGVPDRFSGSGSGTDFTLKISRVEAEDVGIYYCMQRIEFPLTFGGGTKVEIKR	% Max Derepression LPL [1]: 114%; Ab EC50 (nM), derepression of LPL [1]: 4.55 nM; % Max Derepression LPL [2]: 105%; Ab EC50 (nM), derepression of LPL [2]: 1.56 nM
no binding	no binding	0.085 OD 560 nm	0.775 OD 560 nm	0.06 OD 560 nm		Ab with LC variant having a M56T mutation (SEQ ID NO:24) and a HC of SEQ ID NO:6 (antibody, human IgG4 S228P, kappa, F234A L235A, V domains shown) VH: QVTLKESGPTLVKPTQTLTLTCTFSGFSLSISGVGVGWIRQPPGKALEWLALIYRNDDKRYSPSLKSRLTITKDTSKNQVVLTLTNMDPVDTATYYCARTYSSGWYGNWFDPWGQGTLVTVSS VL: DIVMTQTPLSLPVTPGEPASISCRSSQSLLDSDDGNTYLDWYLQKPGQSPQLLIYTLSYRASGVPDRFSGSGSGTDFTLKISRVEAEDVGIYYCMQRIEFPLTFGGGTKVEIKR	
					0.54 nM	B1	IC80 concentration (inhibition of LPL activity) [8]: 0.42 nM
						cynomolgus ANGPTL3/8 complex (other) chain 1: SRIDQDNSSFDSVSPEPKSRFAMLDDVKILANGLLQLGHGLKDFVHKTKGQINDIFQKLNIFDQSFYDLSLQTSEIKEEEKELRRTTYKLQVKNEEVKNMSLELNSKLESLLEEKILLQQKVKYLEEQLTNLIQNQPATPEHPEVTSLKSFVEKQDNSIKDLLQTVEEQYKQLNQQHSQIKEIENQLRMTNIQEPTEISLSSKPRAPRTTPFLQLNEIRNVKHDGIPADCTTIYNRGEHISGTYAIRPSNSQVFHVYCDVVSGSPWTLIQHRIDGSQNFNETWENYKYGFGRLDGEFWLGLEKIYSIVKQSNYVLRIELEDWKDNKHYIEYSFYLGNHETNYTLHVVKITGNVPNAIPENKDLVFSTWDHKAKGHFSCPESYSGGWWWHDECGENNLNGKYNKPRTKSKPERRRGLSWKSQNGRLYSIKSTKMLIHPTDSESFE chain 2: APVSSPELAEHEELTLLFHGTLQLGQALNGVYKTTEGRLTKARNSLGLYGRTVELLGQEVSRGRDAAQELRASLLETQMEEDILQLKAEAIAEVLEEVAQAQKVLQDSVRQLEVQLRSAWLGPAYQEFEVLKAHADKQSHILWALTGHVQRQRREMVAQQHRLRQIQERIHKAALPA	IC80 concentration (inhibition of LPL activity) [10]: 0.38 nM
					21.5 nM	B2	
